Source: the DeepSol protein solubility set

test: soluble on expression in E. coli; label from the status in PepcDB or PDB records

Row | Sequence | soluble on expression in E. coli
1 | MPRYTESEWLTDFIIDALDSGRFWGVGWLDEQKRIFTVPGRNRRERMPEGFDDFYEAFLEERRRHGLPEIPETETGLGCFGRLLRTANRARQERPFTIYKGKMKLNRWIMTPRPYKGCEGCLVYLTQEPAMKNMLKALFGIYPHDDKHREKALRRSLRKKAQRREAARKQAAAVATPTTSSAAEVSSRSQSEDTESSDSENELWVGAQGFVGRDMHSLFFEEPEPSGFGSSGQSSSLLAPDSPRPSTSQVQGPLHVHTPTDLCLPTGGLPSPVIFPHETQGLLAPPAGQSQTPFSPEGPVPSHVSGLDDCLPMVDHIEGCLLDLLSDVGQELPDLGDLGELLCETASPQGPMQSEGGEEGSTESVSVLPATHPLESSAPGASVMGSGQELPDLGDLSELLCETASPQGPMQSEGGEEGSTESVSVLPATHPLESSAPGASVMGSSFQASDNVDDFIDCIPPLCRDDRDVEDQEKADQTFYWYGSDMRPKVLTATQSVAAYLSKKQAIYKVGDKLVPLVVEVYYFGEKVKTHFDLTGGIVICSQVPEASPEHICQTVPPYKCLLPRTAHCSVDANRTLEQTLDRFSMGVVAIGTNMGIFLKGLLEYPAYFVGNASRRRIGKCRPLSHRHEIQQAFDVERHNREPEGSRYASLFLGRRPSPEYDSDHYPVILHIYLAPFYHRD | not soluble
2 | MPSGAEFTRDERQLNQHENPNDAMSDDNSHSSDTVNSKKGFFSLLLSQLFHGEPKNRDELLALIRDSGQNDLIDEDTRDMLEGVMDIADQRVRDIMIPRSQMITLKRNQTLDECLDVIIESAHSRFPVISEDKDHIEGILMAKDLLPFMRSDAEAFSMEKVLRPAVVVPESKRVDRMLKEFRSQRYHMAIVIDEFGGVSGLVTIEDILELIVGEIEDEYDEEEDIDFRQLSRHTWTVRALASIEDFNDAFDTHFSDEEVDTIGGLVMQAFGHLPARGESIDIDGYQFKVAMADSRRIIQVHVKLPDDAPQPKLEE | not soluble
3 | MPSIRLADLAQQLDAELHGDGDIVITGVASMQSAQTGHITFMVNPKYREHLGLCQASAVVMTQDDLPFAKSAALVVKNPYLTYARMAQILDTTPQPAQNIAPSAVIDATAKLGNNVSIGANAVIESGVELGDNVIIGAGCFVGKNSKIGAGSRLWANVTIYHEIQIGQNCLIQSGTVVGADGFGYANDRGNWVKIPQIGRVIIGDRVEIGACTTIDRGALDDTVIGNGVIIDNQCQIAHNVVIGDNTAVAGGVIMAGSLKIGRYCMIGGASVINGHMEICDKVTVTGMGMVMRPITEPGVYSSGIPLQPNKVWRKTAALVMNIDDMSKRLKSLERKVNQQD | not soluble
4 | MPSIRVVNLKKYFGKVKAVDGVSFEVKDGEFVALLGPSGCGKTTTLLMLAGIYKPTSGEIYFDDVLVNDIPPKYREVGMVFQNYALYPHMTVFENIAFPLRARRISKDEVEKRVVEIARKLLIDNLLDRKPTQLSGGQQQRVALARALVKQPKVLLFDEPLSNLDANLRMIMRAEIKHLQQELGITSVYVTHDQAEAMTMASRIAVFNQGKLVQYGTPDEVYDSPKNMFVASFIGNPPTNFLRDFSVSVENKQTILKRDDVIIKLPEPVDVKLKEVVVGIRPEHCRISRERVENSIPGVVYVVEPLGRDIIVNVKTEKGEIIKVFGDTGKAPQPGENVFLVPDLRKIHLFNPETEETIL | soluble
5 | MPSSKTSARRAPSSPGASLWSLPLIRKLCCAPGCEELAPAGQAHCADHAAEAEARARSRKARAKAGAAAQAGAAFYATGRWRRARARFLAAHPLCADCAGLGLVVAAAEVDHIRPHRGDPGLMWDRANWQPLCRPCHSRKTAREVFHPPGGIAKSEGSARLEHHHHHH | not soluble
6 | MPSYKLTYFFFRGLGEPIRLLFHLAGVQFEEVRMNPDQTWLDIKDSTPMKQLPVLNIDGFELPQSGAILRYLARKFGFAGKTPEEEAWVDAVHDLFKDFLAEFKKFAAERRSGKSAEEVEKFRSEFFLPARNTYFNILNGLLEKSNSGFLIGSDITFADLVVVDNLLTLKNYGLFDESEFTKLAALREKVNSYPGIKEYIAKRPVTEY | soluble
7 | MPSYTVTVATGSQWFAGTDDYIYLSLVGSAGCSEKHLLDKPFYNDFERGAVDSYDVTVDEELGEIQLVRIEKRKYWLNDDWYLKYITLKTPHGDYIEFPCYRWITGDVEVVLRDGRAKLARDDQIHILKQHRLKELETRQKQYRWMEWNPGFPLSIDAKCHKDLPRDIQFDSEKGVDFVLNYSKAMENLFINRFMHMFQSSWNDFADFEKIFVKISNTISERVMNHWQEDLMFGYQFLNGCNPVLIRRCTELPEKLPVTTEMVECSLERQLSLEQEVQQGNIFIVDFELLDGIDANKTDPCTLQFLAAPICLLYKNLANKIVPIAIQLNQIPGDENPIFLPSDAKYDWLLAKIWVRSSDFHVHQTITHLLRTHLVSEVFGIAMYRQLPAVHPIFKLLVAHVRFTIAINTKAREQLICECGLFDKANATGGGGHVQMVQRAMKDLTYASLCFPEAIKARGMESKEDIPYYFYRDDGLLVWEAIRTFTAEVVDIYYEGDQVVEEDPELQDFVNDVYVYGMRGRKSSGFPKSVKSREQLSEYLTVVIFTASAQHAAVNFGQYDWCSWIPNAPPTMRAPPPTAKGVVTIEQIVDTLPDRGRSCWHLGAVWALSQFQENELFLGMYPEEHFIEKPVKEAMARFRKNLEAIVSVIAERNKKKQLPYYYLSPDRIPNSVAI | soluble
8 | MPTVSVKRDLLFQALGRTYTDEEFDELCFEFGLELDEITSEKEIISKEQGNVKAAGASDVVLYKIDVPANRYDLLCLEGLVRGLQVFKERIKAPVYKRVMPDGKIQKLIITEETAKIRPFAVAAVLRNIKFTKDRYDSFIELQEKLHQNICRKRALVAIGTHDLDTLSGPFTYTAKRPSDIKFKPLNKTKEYTACELMNIYKTDNHLKHYLHIIENKPLYPVIYDSNGVVLSMPPIINGDHSRITVNTRNIFIECTGTDFTKAKIVLDIIVTMFSEYCENQFTVEAAEVVFPNGKSHTFPELAYRKEMVRADLINKKVGIRETPENLAKLLTRMYLKSEVIGDGNQIEIEIPPTRADIIHACDIVEDAAIAYGYNNIQMTLPKTYTIANQFPLNKLTELLRHDMAAAGFTEALTFALCSQEDIADKLGVDISATKAVHISNPKTAEFQVARTTLLPGLLKTIAANRKMPLPLKLFEISDIVIKDSNTDVGAKNYRHLCAVYYNKNPGFEIIHGLLDRIMQLLDVPPGEDKGGYVIKASEGPAFFPGRCAEIFARGQSVGKLGVLHPDVITKFELTMPCSSLEINIGPFL | soluble
9 | MPTYKLTYFNARGYAEAARILFHLADVPFEDFRMTHGDGTWEKLKDGAPFGQVPYLTVDGFDIPQSAAIIRYLANKFGYAGKTPEEQVWADAIVDQFKDFMGSFRERIMAHFAGKSQEEIAKITSEVVIPARDSYFKILNGLLEKSKSGFLVGDSITFADIVISENITTLEKNQLFVASEQPNLAALREKVYAIPAIRKWVEARPDTQY | not soluble
10 | MPVDLSKWSGPLSLQEVDEQPQHPLHVTYAGAAVDELGKVLTPTQVKNRPTSISWDGLDSGKLYTLVLTDPDAPSRKDPKYREWHHFLVVNMKGNDISSGTVLSDYVGSGPPKGTGLHRYVWLVYEQDRPLKCDEPILSNRSGDHRGKFKVASFRKKYELRAPVAGTCYQAEWDDYVPKLYEQLSGK | soluble
11 | MPVETREISVTAKEDCGIVDITGIVSEEVEKSEIKNGTVTVFCVGSTGAISTMEFESNLSKDISEILDKLIPLNEDYHHHKTWGDFNGGSHLRSFLLGPSLTVPFVEKKLTLGTWQQIVYINFDRIEKVRKIVLQIIGDLLEHHHHHH | soluble
12 | MPVINVKDDEDFRNQLSLAGLKSVIVDFTAVWCGPCKMIAPTFEALSNQYLGAVFLKVDVEICEKTSSENGVNSMPTFMVFQSGVRVEQMKGADAKALETMVKKYADNSAADSLVAGQMDLTPLVDKKQMECLNESDDTPLGRFLEGNCNLVSDCDEQLIISLPFNQPVKVHSILIKGVSDRAPKKVKVFINLPKTTDFDNATALEPTQMLEFDESSIQGHGQVVALKYVKFQNVQNIQFFIENNVGGGDVTELVKLTVFGTPLSALNMNEFKRVAGKAGDAAH | not soluble
13 | MPYIEKLELKGFKSYGNKKVVIPFSKGFTAIVGANGSGKSNIGDAILFVLGGLSAKAMRASRISDLIFAGSKNEPPAKYAEVAIYFNNEDRGFPIDEDEVVIRRRVYPDGRSSYWLNGRRATRSEILDILTAAMISPDGYNIVLQGDITKFIKMSPLERRLLIDDISGIAEYDSKKEKALEE | soluble
14 | MQAGKPILYSYFRSSCSWRVRIALALKGIDYKTVPINLIKDGGQQFSKDFQALNPMKQVPTLKIDGITIHQSLAIIEYLEETRPTPRLLPQDPKKRASVRMISDLIAGGIQPLQNLSVLKQVGEEMQLTWAQNAITCGFNALEQILQSTAGIYCVGDEVTMADLCLVPQVANAERFKVDLTPYPTISSINKRLLVLEAFQVSHPCRQPDTPTELRA | soluble
15 | MQAGPALMSEVASRELRNDTAGVLRRVRAGEDVTITVSGRPVAVLTPVRPRRRRWLSKTEFLSRLRGAQADPGLRNDLAVLAGDTTEDLGPIR | soluble
16 | MQAVSVDETKNTVVLRAEHKNEEGRKSVDKFEVKTRNPETIKSVERKLMEKGVQRMDRHPSDGIPLRRPPSKSGHGGKYTWEGPDRMEDYEMQPDPPAMDEGDPNYDEEQVKKSGDDVAVELVKGEVEVAKEAPAGVARVEVDPRLVGR | soluble
17 | MQAYFDQLDRVRYEGPQSTNPLAFRHYNPDELVLGKRMEDHLRFAACYWHTFCWNGADMFGVGAFNRPWQQPGEALELAKRKADVAFEFFHKLNVPFYCFHDVDVSPEGASLKEYKNNFAQMVDVLAAKQEQSGVKLLWGTANCFTNPRYGAGAATNPDPEVFSWAATQVVTAMNATHKLGGENYVLWGGREGYETLLNTDLRQEREQIGRFMQMVVEHKHKMGFQGTLLIEPKPQEPTKHQYDYDVATVYGFLKQFGLEKEIKVNIEANHATLAGHSFHHEIATAIALGIFGSVDANRGDAQLGWDTDQFPISVEENALVMYEILKAGGFTTGGLNFDAKVRRQSTDKYDLFYGHIGAMDTMALSLKIAARMVEDGELDKRVAKRYAGWNGELGQQILKGQLSLGELAQYAEQHNLAPVHQSGHQELLENLVNRYLFDK | not soluble
18 | MQDSVLGVMQPDGFQDIVAARFREARAGGLISTVFQIEIDDHTSLVERHGQRAAEVISTTSADRIAAVLRDRDAVTHLDTFKYAVCLEPVRQMDLELCIQLAGRIQAALEEPIALDATAVCITSSVGFCQQTKVLSRSGEAWLAAAGHALREAHLNGPGAIRAYSLEHHHHHH | not soluble
19 | MQDTTLLQMITDDMVSARQLLELLQAESLILHGRDMSEMEQVLAQKQALVILLDQHGRKRSQVLAGMGLPANRSGLQQLASQSEVGEQLLTSSDELNALINECQTLNDQNGSLIQLQQISTAHQLRILNGGETPTLYDARGSTALRAKPRPLSQA | not soluble
20 | MQEDTLTSRGNMPYSLNVLIPLSCDLRPPVPQAIHAGRVDHRELGFVHPVSPGDVVAEVLVPAGEHFSPEVAQHLIGEGCALGDASTEHTEGQGVPVVATRSGHLDWDERALAVRDTLVVDEDVTYHVGNIRYFGDLIVRGMVRVAFRVRARSLLVEGLIEGAFIECERLEARGGVKAGGSGRLRVRETVAAPFMENAIVHAGSHVVVSGSSLHNEIKSNASVQVAERLIGGMTAARDSITVGERLGGGMSTLTRVQVGYDPFLNTAVHRLEVQAQHVEEVMLSCAKLAGRGGRLGDKAKARGERYAAALKRLRRKLADLLARLDATSTLETCTIDVRGEVRPGVEICIGPARLMNQDFLKNVRFSYCDGAVVATHPAGRTALEHHHHHH | not soluble
21 | MQEKAVVLDDQMIRRALTRISHEIVERNKGVDNCVLVGIKTRGIFIAQRLAERIGQIEGKEMEVGELDITLYRDDLTLQSKNKEPLVKGSDIPVDITKKKVILVDDVLYTGRTVRAAMDALMDLGRPSQIQLAVLVDRGHRELPIRADYVGKNIPTSSEERIEVDLQETDQQDRVSIYDK | soluble
